The values that follow come from paper PMC7905068, “Bornyl Diphosphate Synthase From Cinnamomum burmanni and Its Application for (+)-Borneol Biosynthesis in Yeast” (Frontiers in Bioengineering and Biotechnology, 2021).

Substrate in this data set: CC(C)=CCC/C(C)=C/COP(=O)(O)OP(=O)(O)O
The data set can be described thus: GC-MS of products after CIAP dephosphorylation, Michaelis-Menten fit. To be noted: 50 mM HEPES pH 7.2, 10 mM MgCl2, 5 mM DTT, 30 °C, 3 min, 0.125-150 μM GPP. It is filed as biochemical, Cinnamomum burmanni.

B1: CbTPS1 (Cinnamomum burmanni) (protein)
chain: MALQMTVPFLSSFLPNPRHRPTAHGFIPQERVSKHISCSTTTPTYSTTVPRRSGNYKPSIWDYDFVQSLVSDYKVEAHGTRVEKLKEVVKNLLKETDSSLAQMELIDSLHRLGVRWLFENEIKQVLYTVSSDNTSIEMKKDLHAVSTRFRLLRQHGFKVSTDVFNDFEDEKGCFKPSLSMDIKGMLSLYEASHLAFQGETILDEARAFTHAHLMGIKENIDPIIHKKVEHALDMPLHWRLEKLEARWYMDMYMREEGMNSSLLELAMLHFNIVQATFQTNLKSLSRWWKDLGLGEQLSFSRDRLVECFFWAAAMTSEPQFGRCQEAVAKVVQLTTTIDDIYDVYGTVDELELFTNAVDRWDLEAMEQLPEYMKTCFLALYNSINEIGYGILKEQGRNVIPYLRNAWTELCKAYLVEAKWYSSGYTPMLEEFLQTSWISVGSLPMQTYAFALLGQNLAPESCDFAEQISDILPLAGMLIRFPDDLGTSLDELKRGDVPKSIQCYMHEAGVTEDVARDHIMGLFRETWKKLNEYLVESSIPHAFIDQAMNLGRVSYCTYKHGDGFSDGFGDPGSQEKKMYMSLFVEPIQVDEAKGISFCVDGGYA
As for B1, the Km came out at 5.11 ± 1.70 µM and the kcat worked out at 0.01 s^–1.
